Data on 131 substances can be found in the supplement of paper PMC12042874.

± gives the uncertainty stated by the source.

A short description of the series: amyloid nucleation score (Sup35N fusion, yeast selection) (log enrichment); library NNK3; higher = more nucleation; inactive = no reads after selection. The gist of the method: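 Peptides of 20 random codons, each fused to Sup35N, were expressed in psi-negative yeast. Cells were induced with 100 μM copper sulfate for 24 hours and grown 7 days at 30°C on medium lacking adenine and uracil, and plasmid inserts before and after selection were Illumina-sequenced. Nucleation scores are DiMSum log enrichments of output over input reads, centred on the mode score of non-aggregating sequences, and sequences under 100 input reads were excluded.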
Consider RKKRY, for which the amyloid nucleation score result is “inactive”.

CVDYKRMNGFKCTLDVFRAI had an amyloid nucleation score of 0.184 ± 0.61.

Consider SVESECRDMFSFKGFCVCVK, for which the amyloid nucleation score result was “inactive”.

On to FSRYDRDLKGSLSGRSYFSA, for which the amyloid nucleation score result is “inactive”.

As to NIWESAVPWVTDALVYKNRV, the amyloid nucleation score was -0.323 ± 0.96.

In the case of SMPRAEHSDVSCYAHYFSFR, the amyloid nucleation score result is “inactive”.

Consider SNTFRTIGS, for which the amyloid nucleation score entry is “inactive”.

With PMLVALWCMGKTN, the amyloid nucleation score is -0.521 ± 1.4.

For GRILLYLNEFFSGRIISLHK, the amyloid nucleation score entry was “inactive”.

In turn, YFKWVFKSYKPV yielded an amyloid nucleation score of 1.35 ± 0.12.

As to YDPFYGNDQVPIQIVFLCFP, the amyloid nucleation score result was “inactive”.

For the substance VTQYMYTT, the amyloid nucleation score entry is “inactive”.

Regarding FSLSPIFWYAG, the amyloid nucleation score entry is “inactive”.

As for LWDRHNCWGDEASFPSRPTY, the amyloid nucleation score result was “inactive”.

On to FKEWVFCMYECE, for which the amyloid nucleation score entry was “inactive”.

Substance FNFCCLSKQGAFFMGTYCCP showed an amyloid nucleation score of 0.341 ± 0.6.

Consider AKWVLDFVKDRLPFRFCMLV, for which the amyloid nucleation score entry was “inactive”.

For the substance KVCRAYWYYPNFTMSRT, the amyloid nucleation score result was “inactive”.

Consider LQHVIFSYLLVGASSFRFHP, for which the amyloid nucleation score entry is “inactive”.

As to HGLFTFVGCHCLCRN, the amyloid nucleation score is 0.939 ± 0.16.

Regarding LDTYCIVDRDNRCGRNVVLY, the amyloid nucleation score entry is “inactive”.

On to GRCSQGSLGSAG, for which the amyloid nucleation score entry is “inactive”.

For the substance NNLRNIPE, the amyloid nucleation score entry is “inactive”.

Take FGRVNCSSNYRNKMISSTRW: the amyloid nucleation score entry was “inactive”.

Take FVGSLLGKSKFLGLHCCKEV: the amyloid nucleation score is -0.08 ± 0.66.

As for MTVTGPQYLPWGLRHNA, the amyloid nucleation score entry was “inactive”.

For TPSGCAFNHCVMGTGDFQYM, the amyloid nucleation score stood at 2.38 ± 0.073.

Consider RGKSLFLINTDM, for which the amyloid nucleation score is -0.148 ± 0.7.

For the substance TVEKTWKTVYIYKDSVTLRN, the amyloid nucleation score amounted to 1.33 ± 0.12.

Turning to SFFIALVNIFRCLN, the amyloid nucleation score came out at 2.56 ± 0.059.

As for QCFKDRMWHGICREPVAKIG, the amyloid nucleation score result was “inactive”.

Consider LSCVRRSSLDSC, for which the amyloid nucleation score entry was “inactive”.

With VCFGWSNSFSAWT, the amyloid nucleation score result was “inactive”.

In the case of AYLFLLWSW, the amyloid nucleation score entry was “inactive”.

Take SSSYFIALWYFRTTRLSGGL: the amyloid nucleation score entry is “inactive”.

Turning to FTDLTVNPNYNFYMCSLNRL, the amyloid nucleation score came out at 2.72 ± 0.054.

On to PYLRMG, for which the amyloid nucleation score result is “inactive”.

The substance SRVITDVHERVAVGGVVIWD came in with an amyloid nucleation score of 0.003 ± 0.31.

In the case of MHNHMYISKEMLYNERTLSI, the amyloid nucleation score entry is “inactive”.

Turning to LEITALLTVRMHVDS, the amyloid nucleation score entry is “inactive”.

Turning to ETRMGTK, the amyloid nucleation score result is “inactive”.

Turning to MVKGGKDHSSVGPC, the amyloid nucleation score entry is “inactive”.

For the substance CVGGSVFVACMLRSRVWGWC, the amyloid nucleation score result is “inactive”.

The substance LHFGDMLLVCNTFFELRVLH yielded an amyloid nucleation score of 1.73 ± 0.08.

Consider LPLADLKGMASASFKDGKVF, for which the amyloid nucleation score entry was “inactive”.

As for AYVFVYESYAWGNLRQ, the amyloid nucleation score result was “inactive”.

For the substance DEKIGGTVKYGVVQAYV, the amyloid nucleation score result was “inactive”.

SVFKIV: the amyloid nucleation score entry was “inactive”.

For FSSMANNIL, the amyloid nucleation score entry was “inactive”.

For the substance VYRFGMVLRNVHLFRLLIGG, the amyloid nucleation score result is “inactive”.

As to RIDIGY, the amyloid nucleation score came out at 0.612 ± 0.17.

On to CRSIWITPGNYAFALSFLMR, for which the amyloid nucleation score entry was “inactive”.

Take NINSTFQRQVLSDCLVQWYM: the amyloid nucleation score entry is “inactive”.

Regarding REHLLDHTRLYC, the amyloid nucleation score entry is “inactive”.

IPDDDFFLLALSTLN: the amyloid nucleation score result is “inactive”.

For DFSKVNDQTADSYMWCSVDS, the amyloid nucleation score result is “inactive”.

Regarding CLMPLSDN, the amyloid nucleation score entry is “inactive”.

The substance YNMLCCRLSWRYIDRRQGRR displayed an amyloid nucleation score of 3.17 ± 0.072.

For RYNRDGMTYMSISFPRGPYL, the amyloid nucleation score came out at 1.27 ± 0.12.

Turning to GHKVVL, the amyloid nucleation score result was “inactive”.

As for LSNTRLRNMFSRDRGASLEG, the amyloid nucleation score result is “inactive”.

In the case of WYTNPRDIRYFLVVYKKQN, the amyloid nucleation score entry was “inactive”.

YGCQSCHGFLCSQFGRPAHS: the amyloid nucleation score stood at 0.976 ± 0.21.

For the substance CDYIKAKSVTDVCGNP, the amyloid nucleation score entry was “inactive”.

In the case of LCSNLSGDVYELVSHFPGGD, the amyloid nucleation score result is “inactive”.

Regarding SRSDKNHRNVANLNGVWCVT, the amyloid nucleation score entry was “inactive”.

In the case of SEAIFMVVGVRYEMELRWM, the amyloid nucleation score is -0.55 ± 1.4.

For the substance DTESWNCFFYRDYYSGQILK, the amyloid nucleation score result was “inactive”.

Regarding YRSSDQDVTVIMCLLANYYN, the amyloid nucleation score was determined as 2.37 ± 0.057.

On to HINTWRLFRVGIPYVCVSDG, for which the amyloid nucleation score entry is “inactive”.

On to SSAGYVVYIVMSRS, for which the amyloid nucleation score worked out at 2.65 ± 0.065.

Consider VMCLPLPKFI, for which the amyloid nucleation score result was “inactive”.

Consider FVSSVASFVSHKLVMKLSAM, for which the amyloid nucleation score entry was “inactive”.

Consider VSLKEITKLYRSIWVFLWSS, for which the amyloid nucleation score entry was “inactive”.

As for YIALLLLSRWDQTCKGARTG, the amyloid nucleation score turned out to be 0.622 ± 0.18.

For NPCHCQRRINFVL, the amyloid nucleation score result was “inactive”.

With LYEDYISSSMSMLLRLLSSY, the amyloid nucleation score entry is “inactive”.

For the substance RRTRYDS, the amyloid nucleation score entry is “inactive”.

As to DYCGKRYPSASVKWPECFRG, the amyloid nucleation score result is “inactive”.

As to LVLDINTFTDIGSRKRWSHG, the amyloid nucleation score entry was “inactive”.

With IPQNNLSDWLKCQMILVKEY, the amyloid nucleation score result was “inactive”.

For the substance LSAMLDTDAYRGLW, the amyloid nucleation score result is “inactive”.

Consider GLWRLSCKSYAWHF, for which the amyloid nucleation score entry is “inactive”.

For the substance VTAELNFITVNGYVE, the amyloid nucleation score entry was “inactive”.

GNISIWGFRNSWALDLIAGY: the amyloid nucleation score result was “inactive”.

For LLSETAHLFVFT, the amyloid nucleation score result is “inactive”.

Regarding NLYRRYHVHSKRALSIYSTP, the amyloid nucleation score is -0.033 ± 0.23.

As for WQTDEDRRCKTDFISLF, the amyloid nucleation score result was “inactive”.

Consider YRYYFRSEVPEDKEDDGYLL, for which the amyloid nucleation score entry is “inactive”.

Turning to PQLWSMYHSGP, the amyloid nucleation score is -0.586 ± 1.4.

Consider AGGLSGDNWRRIDG, for which the amyloid nucleation score result was “inactive”.

For KNMHNPDRY, the amyloid nucleation score entry was “inactive”.

As for STTLWAIALGLYNTVYSLAN, the amyloid nucleation score entry is “inactive”.

As to IFVGVSYVHFRLEH, the amyloid nucleation score was 1.8 ± 0.099.

DKVIHVAGFKVIDCHSSRIR: the amyloid nucleation score entry was “inactive”.

Take SFSLKPTDYIFIIVRSRRNP: the amyloid nucleation score entry is “inactive”.

For the substance RTYHSLVSSEERRWKLKHCY, the amyloid nucleation score result is “inactive”.

In the case of CYSFLWALRGMEF, the amyloid nucleation score entry is “inactive”.

On to CMFYLLVSLPWVAVTSVLRV, for which the amyloid nucleation score entry was “inactive”.

The substance AGFAMYFGFVGYNFSFPWG yielded an amyloid nucleation score of 1.17 ± 0.19.

As for SMDVKHRR, the amyloid nucleation score result is “inactive”.

With LFSTMFDTIENYNIGCTCGF, the amyloid nucleation score came to 2.01 ± 0.053.

With FTNLMLTTMCSLTLLTRGFP, the amyloid nucleation score result is “inactive”.

Regarding YYAPVCYLSTKQGKARRPPP, the amyloid nucleation score result is “inactive”.

LREQGRNTSR: the amyloid nucleation score result was “inactive”.

For the substance VKNVIRGIKAQKVGGDESLC, the amyloid nucleation score result was “inactive”.

With LKIAQHRGSVFNGDKK, the amyloid nucleation score result is “inactive”.

Turning to SISAKVGSSGRLGRSPYRVD, the amyloid nucleation score entry is “inactive”.

For the substance MIKPIIHFSGG, the amyloid nucleation score entry is “inactive”.

On to NIIKTLAVRSGRRFRFLVRW, for which the amyloid nucleation score result was “inactive”.

For the substance MLLVHNRTDIFLWIDLYNSL, the amyloid nucleation score entry is “inactive”.

On to CFRAGVIFIWGVHNSYYRTS, for which the amyloid nucleation score is 2.23 ± 0.082.

On to SVIMGLTGDPGVALYVVTIM, for which the amyloid nucleation score result was “inactive”.

In the case of RLFSWNIYLWLL, the amyloid nucleation score was determined as 1.48 ± 0.081.

In the case of GCIVFCCRTLVNFDVVVYWF, the amyloid nucleation score result is “inactive”.

For VNPISWGHVIVTYQN, the amyloid nucleation score result is “inactive”.

As for TGNDGYCVCSVCYLRICVAN, the amyloid nucleation score result was “inactive”.

Turning to DCYRGVSLCELFDECR, the amyloid nucleation score result was “inactive”.

Turning to PYFRMVNYYFFMTVSGRFNF, the amyloid nucleation score is -0.507 ± 1.

As to WPVNCMKGSSCNRELFNH, the amyloid nucleation score result was “inactive”.

In the case of VAALFKGKAVSCGGFSFFN, the amyloid nucleation score is -0.076 ± 0.54.

As for GNYIITLY, the amyloid nucleation score entry was “inactive”.

IFTVCHVGSACSGNCTGQ: the amyloid nucleation score worked out at 3.01 ± 0.06.

Turning to IGKKVCMCRDKGGLIGLRGG, the amyloid nucleation score result was “inactive”.

For PYMITILHFISHATVLNTSV, the amyloid nucleation score entry is “inactive”.

In the case of SRACSTHCIFEGTWSG, the amyloid nucleation score result was “inactive”.

In the case of YRNCLLRDMSWVVDFIDIKT, the amyloid nucleation score entry is “inactive”.

The substance WWIARIRMHGCCDVYLGQHR came in with an amyloid nucleation score of 2.6 ± 0.087.

As to GWVIDRLYGDDMSSILEL, the amyloid nucleation score result is “inactive”.

With NYVLRSMSGTRFRALWRVAP, the amyloid nucleation score result was “inactive”.

In the case of WNPYAIARKAIVRGSVKWGV, the amyloid nucleation score entry is “inactive”.
